According to US20050058643A1 (APITOPE TECHNOLOGY BRISTOL, published 2005):

Molecular target: T1, HLA:DR2 (DRB1*1501) MHC Class II molecule (human)
T1 construct: whole, on cells
Test: conclusion drawn from presentation and tolerance experiments (fixed HLA-DR2+ APC; HLA:DR2 transgenic mice); no direct binding assay

Binder: GFKGVDAQGTLSKIF (also called APITOPE-MS-6) [MBP peptide 140-154]
- binding result: binds
